Data: paper PMC11564117, “Control of mitophagy initiation and progression by the TBK1 adaptors NAP1 and SINTBAD” (Nature Structural & Molecular Biology, 2024)

Target: T1, SINTBAD–mCherry (UniProt A7MCY6 1-615)
T1 construct: the legend says SINTBAD-mCherry; also called mCherry–SINTBAD; similar to NAP1 TBK1 adaptor; source: Sf9 insect cells, purified (GST-batch protocol); not shown: mCherry, C-terminal, kept
Test: microscopy-based bead assay; Figs. 5b, 7d, 7f, Extended Data Fig. 9b: GST–4×Ub on glutathione beads; OPTN (mCherry-tagged or unlabeled) and GFP–TBK1 250 nM; NAP1, MBP–NAP1 or SINTBAD–mCherry 100 nM to 10 µM; unlabeled NDP52 250 nM where indicated; 25 mM Tris-HCl pH 7.4, 150 mM NaCl, 1 mM DTT; Fig. 5b without ATP, Fig. 7f with or without ATP/MgCl2; 30 min; confocal imaging
Settings: both partners purified

T1 sequence (A7MCY6 whole entry): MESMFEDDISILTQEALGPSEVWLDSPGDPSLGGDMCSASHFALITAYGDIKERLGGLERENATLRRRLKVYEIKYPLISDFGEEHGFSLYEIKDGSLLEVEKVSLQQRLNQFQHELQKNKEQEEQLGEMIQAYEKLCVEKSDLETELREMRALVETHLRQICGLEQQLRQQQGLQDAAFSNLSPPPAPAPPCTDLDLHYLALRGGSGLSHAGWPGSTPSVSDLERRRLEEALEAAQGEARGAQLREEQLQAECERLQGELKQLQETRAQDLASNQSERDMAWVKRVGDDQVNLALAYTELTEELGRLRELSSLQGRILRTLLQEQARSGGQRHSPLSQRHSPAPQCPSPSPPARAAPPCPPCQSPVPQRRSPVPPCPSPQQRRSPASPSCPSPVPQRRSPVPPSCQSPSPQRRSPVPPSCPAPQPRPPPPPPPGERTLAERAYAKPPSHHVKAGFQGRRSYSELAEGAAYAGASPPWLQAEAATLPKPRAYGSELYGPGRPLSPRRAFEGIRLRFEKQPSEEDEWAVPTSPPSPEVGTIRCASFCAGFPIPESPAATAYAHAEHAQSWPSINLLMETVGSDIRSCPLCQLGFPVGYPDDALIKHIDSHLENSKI

binding result: binds
B1: NDP52 (unlabeled) (natural protein, human, UniProt Q13137 1-446, looked up)
chain: MEETIKDPPTSAVLLDHCHFSQVIFNSVEKFYIPGGDVTCHYTFTQHFIPRRKDWIGIFRVGWKTTREYYTFMWVTLPIDLNNKSAKQQEVQFKAYYLPKDDEYYQFCYVDEDGVVRGASIPFQFRPENEEDILVVTTQGEVEEIEQHNKELCKENQELKDSCISLQKQNSDMQAELQKKQEELETLQSINKKLELKVKEQKDYWETELLQLKEQNQKMSSENEKMGIRVDQLQAQLSTQEKEMEKLVQGDQDKTEQLEQLKKENDHLFLSLTEQRKDQKKLEQTVEQMKQNETTAMKKQQELMDENFDLSKRLSENEIICNALQRQKERLEGENDLLKRENSRLLSYMGLDFNSLPYQVPTSDEGGARQNPGLAYGNPYSGIQESSSPSPLSIKKCPICKADDICDHTLEQQQMQPLCFNCPICDKIFPATEKQIFEDHVFCHSL
notes: NDP52 (CALCOCO2), human cDNA in a pGST2 vector with N-terminal GST tag and TEV site; Called 'unlabeled NDP52' in the bead assays; also called nuclear dot protein 52; CALCOCO2; source: E. coli Rosetta pLysS, purified (GST-batch protocol)
